Values of other authors as cited in PMC7680388.

Molecular target: Ubiquitin (Homo sapiens) (UniProt P0CG48)

Chain of Rpn13 (Q16186 2-407): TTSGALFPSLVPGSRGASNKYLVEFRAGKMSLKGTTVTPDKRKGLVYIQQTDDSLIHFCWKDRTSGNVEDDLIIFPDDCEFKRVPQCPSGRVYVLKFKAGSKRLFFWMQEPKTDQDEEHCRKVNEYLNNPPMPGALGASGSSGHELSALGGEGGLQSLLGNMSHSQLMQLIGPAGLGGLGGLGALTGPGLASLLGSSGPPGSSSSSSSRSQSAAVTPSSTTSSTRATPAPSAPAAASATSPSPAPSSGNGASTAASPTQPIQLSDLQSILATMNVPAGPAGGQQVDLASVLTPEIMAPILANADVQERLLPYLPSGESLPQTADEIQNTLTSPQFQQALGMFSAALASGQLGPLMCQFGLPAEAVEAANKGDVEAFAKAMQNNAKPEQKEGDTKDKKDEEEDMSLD

Rpn13 (from UniProt Q16186)
Kd: 40 µM
